From patent publication US20240076663A1, “PEPTIDE-NUCLEIC ACID COMPLEX HAVING BLOOD-BRAIN BARRIER PENETRATION ABILITY AND COMPOSITION COMPRISING SAME” (SEASUN THERAPEUTICS, INC, priority 2019, published 2024)
“Also recorded” adds a separate entry of the source.

What was measured:
[1] = general knowledge stated in the patent; cited from earlier work
[2] = Blood-brain barrier permeability of the nucleic acid complex in a mouse model (cy3 fluorescence in brain tissue, confocal microscopy); format: in vivo; settings: ICR mice, 20 mg/kg caudal vein; for distribution of fluorescence expression among brain regions: 20 mg/kg
Protocol: In order to confirm the blood-brain barrier permeability of the nucleic acid complex, 6-week-old male ICR mice (OrientBio, Korea) were purchased and acclimatized for a week, after which 20 mg/kg (n=6) of the nucleic acid complex was administered to the caudal veins thereof. In a positive control group (n=6), fluorescent-material-labeled methotrexate was administered to the caudal veins, and in a negative control group (n=6), DMSO at the same concentration as in the experimental group was diluted with saline and administered via the same route.
The mouse model was anesthetized by intraperitoneal administration of Avertin (5 mg/kg), followed by washing and fixing of the brain tissue through perfusion with saline and 4% paraformaldehyde. The fixed brain tissue was separated and dehydrated by placing the same in 30% sugar water for 24 hours, after which an embedding process was performed using OCT. The entire region of the brain tissue was cryosectioned into 30 μm sections. In order to observe the entire brain tissue from the cerebral cortex to the brainstem, the tissues were broadly separated into a total of six regions, namely the prefrontal cortex, lateral ventricle, paraventricular nucleus, hippocampus, midbrain, and cerebellum, and mounted on slide glasses, and the nuclei were stained with DAPI for 15 minutes and then analyzed using a confocal microscope.
Therefore, in order to determine whether the administered material spreads through the present system, the brain tissue was classified into six major regions from the front to the back and analyzed. In addition, in order to observe the extent of spreading over time, the groups were separately observed on day 1 and day 3, and the numerical values thereof were analyzed.
Then, for all experimental groups to which the nucleic acid complex was administered, the distribution of fluorescence in tissues depending on the administration date was numerically analyzed, and the distribution of fluorescence expression in each tissue of the brain after administration of the nucleic acid complex was compared.

| Molecule | blood-brain barrier crossing (known) [1] | fluorescence expression by cy3 in brain tissue (confocal microscopy) ([2]; FIG. 1, versus group given only methotrexate) | fluorescence expression, day 3 versus day 1 ([2]; all brain tissue regions) | distribution of fluorescence expression among brain regions ([2]; day 1) | distribution of fluorescence expression among brain regions ([2]; day 3) | bioavailability (known) [1] |
| --- | --- | --- | --- | --- | --- | --- |
| O=C(O)CCCc1ccc(N(CCCl)CCCl)cc1 [Chlorambucil] | incapable of crossing the blood-brain barrier |  |  |  |  |  |
| POLIGO ™_1 (chain 1 ATGATTCTGCCCTCC; chain 2 TACTAAGACGGGAGG; chemistry not given here; one strand is listed 3' to 5') |  | high fluorescence expression compared to the group administered only with methotrexate | higher on day 3 than on day 1 in all brain tissue regions | higher in the midbrain and cerebellum; also recorded: high in the midbrain and cerebellum | the fluorescence spread to the prefrontal cortex; also recorded: high even in the prefrontal cortex |  |
| CN(Cc1cnc2nc(N)nc(N)c2n1)c1ccc(C(=O)N[C@@H](CCC(=O)O)C(=O)O)cc1 [Methotrexate] | known to cross the blood-brain barrier |  |  |  |  | very low bioavailability |
